From the RNAGym collection of RNA variant scans (doi:10.1021/acssynbio.7b00057)

B1: Pistol ribozyme (parent)
chain: GGGUCGUUGUUCCAUAAUCGCGUGGAUAUGGCACGCAAGUUUCUACCGGGCACCGUAAAUGUCCGACUGGAGCCGUUCGGGCGGCUAUAAACAGACCUCAGGCCCGAAGCGUGGCGGCACCUGCCGCCGGUGGUAAAAAAGAUCGGAAGAGCACACGUCU

Variants of: B1
Test: aptazyme ON/OFF ratio, guanine; higher = stronger switching; co-transcriptional cleavage with and without guanine

| Variant | aptazyme ON/OFF ratio |
| --- | --- |
| U7C G9C U10A U11C C12G C13U | 1.17 |
| U7C U8G G9A U11C C12A C13G | 1.12 |
| U7A G9C U10G U11G C13U | 1.1 |
| U7G U8G U10A U11A C12G | 1.22 |
| U7A U8G G9C U10C U11C C12G | 1.05 |
| U7G U8G C13A | 1.4 |
| U7A U8A G9A U10G U11G C12U | 1.33 |
| U8C G9C U10G U11G C12A | 1.15 |
| U7A U8C G9U U10A C12A C13U | 1.18 |
| U7A U8C G9C U10G C12U | 1.02 |
| U7A U8C G9U U10A C12U C13G | 1.17 |
| U8C G9A U10G C12U | 1.36 |
| U8C G9A U10C U11A C13U | 1.3 |
| U7G U8G G9C U11C C12G C13U | 1.39 |
| U7A U8C G9C U10C U11C C12G C13G | 1.09 |
| U7G U8A G9C U10C U11G C12A | 1.08 |
| G9U U10G C13G | 1.29 |
| U7A G9C U10G C12A C13G | 1.09 |
| U7G U8C G9A U10A C12G C13A | 1.07 |
| U7G G9U C12G C13G | 1.22 |
| U7C U10A U11A C12G C13U | 1.17 |
| U7A G9C U10A C12U C13A | 1.14 |
| U7C U8A G9A U10A U11C C13U | 1.05 |
| U7C U8G G9A U11A C12U C13U | 1.15 |

| Variant | aptazyme ON/OFF ratio |
| --- | --- |
| U7C G9C U10A U11A C12A C13U | 1.06 |
| U7G U8C G9U U10A U11A C13A | 1.3 |
| U7G U8G G9A U10G C12U C13U | 1.17 |
| U8C G9C U10C C12U C13U | 1.06 |
| U7G U8C U11A C13U | 1.32 |
| U7G U8A G9C U10A U11G C12G C13U | 1.04 |
| U7C U8A G9U U10A U11G C12G C13A | 1.15 |
| U7G U8G G9U U10G U11A C12G | 1.16 |
| U7C U8G G9U U10G C12G | 1.08 |
| U8G U10C C13G | 1.04 |
| G9C U10A U11A C12A C13U | 1.27 |
| U7C G9A U10G U11A C12A C13U | 1.16 |
| U7C U8C G9A U10C U11G | 1.24 |
| U7C U8C G9C U10G U11A C12U C13U | 1.09 |
| U7G U8C G9A U10A U11C C12A | 1.31 |
| U8C G9U U11C C12G | 1.24 |
| U7C U8G U11A C12A | 1.14 |
| U7A U8G G9A U11G C13A | 1.39 |
| U7A G9A U10A U11G C12G C13A | 1.32 |
| G9C U10G U11G C12A C13A | 1.11 |
| U7G G9C U10G C12G | 1.51 |
| U8A G9U U11A C12U C13G | 1.09 |
| U7G U8C U10C U11A C13U | 1.35 |
| U7A U8C G9A U11A C12U C13G | 1.13 |

| Variant | aptazyme ON/OFF ratio |
| --- | --- |
| U8C U10C U11G C12G C13G | 1.15 |
| U7A U8G G9U U10C U11A C12A C13A | 1.26 |
| U7G U8A G9U U10A U11G C12A C13A | 1.09 |
| U8A G9U U10G U11G C12U | 1.28 |
| G9U U11C C12U | 2.4 |
| U7A U8G U10A U11C C12U C13G | 1.41 |
| U7A U8A G9U U10C U11G C12U | 1.22 |
| U7A U8G G9A U10G U11A C12A | 1.28 |
| U8A U10G C12U C13G | 1.23 |
| U7C U8C G9C U11G C12G C13G | 1.11 |
| U7C U8A G9A U10G U11G C12G | 1.29 |
| U7A U8G G9U U10G C12A | 1.21 |
| U7C U8A G9U U10C C12U C13A | 1.12 |
| U7G U8A U10C U11A C12U | 1.42 |
| U7C U8G G9A U10G C12G C13U | 1.17 |
| U7G U8A G9U U10C U11C C12G C13G | 1.06 |
| U7G U8G G9A U10A U11C C12G C13U | 1.13 |
| U7G U8G G9U U10A C12U C13G | 1.09 |
| U7A U8G G9A U10G U11G C13G | 1.42 |
| G9A U10C U11A C12A C13G | 1.42 |
| U7C U8C G9A U10G U11C C12U C13A | 1.29 |
| G9A U10C C12A C13G | 1.29 |
| U7C U11A C12A C13A | 1.23 |
| U7A U8C G9U U10A C12U | 1.18 |

| Variant | aptazyme ON/OFF ratio |
| --- | --- |
| U8C G9C U10A U11C C12G C13U | 1.27 |
| U7G U8G U11A C12G C13A | 1.11 |
| U7G G9U U10A U11C C12G | 1.5 |
| U7G U8G G9A U10C U11G C12U | 1.34 |
| U7A U8C U10G U11A C12U | 1.11 |
| U7A U8C G9C U10A C12A C13A | 1 |
| U7G U8G G9A U10A U11A C12A C13U | 1.38 |
| U7A G9A U10A U11C C12A C13G | 1.15 |
| G9U U10C U11C C12A C13U | 1.2 |
| U7A U8G G9C U10C C12A C13U | 1.12 |
| U7C U8A U10C U11C C12G | 1.25 |
| U7C U8G G9U U10C U11A C12G C13U | 1.2 |
| U7G U8C G9A U11C C12G C13A | 1.05 |
| U7A G9C U10G U11G C12U C13U | 1.16 |
| U7G G9A U10G U11C C12U C13U | 1.09 |
| U7G U8G U11G C12U | 1.25 |
| U8C U11A C12U C13G | 1.18 |
| U7A G9C U10C U11G C12G | 1.1 |
| U7A U8C G9A C12G C13U | 1.2 |
| U7C G9A U10A U11C C12U C13A | 1.24 |
| U7C U8A G9C U10G U11C C12A C13A | 1.36 |
| U7G U8A G9U U10A C12A C13U | 1.06 |
| U7C U8A G9C U11C C12A C13A | 1.04 |
| U8G G9C U10C U11C C12U C13U | 1.04 |

| Variant | aptazyme ON/OFF ratio |
| --- | --- |
| U7C U8A G9U U10C U11A C12U C13U | 1.15 |
| U7A U8A G9U U11A C12A | 1.25 |
| U7A U8A G9C U10A U11G C12U C13G | 1.11 |
| U7C U8A U10A C12G | 1.19 |
| U7A U8A G9C C12A C13A | 1.17 |
| U10A U11G C12G C13A | 1.27 |
| U7G U8C U10G C12G | 1.05 |
| U7C U10A U11C C12U C13G | 1.07 |
| U7G U8A G9A U11A C12G C13U | 1.14 |
| G9U U10G U11A C12G C13G | 1.08 |
| U7G U8G G9C U10A U11C C12A C13U | 1.04 |
| U7C U8A G9U U10A U11C | 1.05 |
| U7A U8G G9U U10C U11C C12G C13A | 1.2 |
| U8G U10C U11C C12U C13U | 1.09 |
| U8C G9C U10C C13U | 1.12 |
| U8C G9U U10C U11G C12U C13G | 1.12 |
| U7A U10A C12U C13U | 1.27 |
| U7A G9U U10G U11A C12A C13G | 1.17 |
| U7C U8C G9C U11A C12U C13U | 1.11 |
| U7A U8C G9C U10C U11A C12U C13U | 1.02 |
| U7C G9C U10A U11A C12A | 1.16 |
| U7A G9U U10A C12A | 1.47 |
| U7A U8C G9A U10C U11C C12G C13A | 1.06 |
| U7G U8G G9U C12A | 1.56 |

| Variant | aptazyme ON/OFF ratio |
| --- | --- |
| U7A U8A G9C U11C C12A C13G | 1.07 |
| U7A G9A U10C U11G C12A C13G | 1.24 |
| U7G U8C G9C U11G C13A | 1.24 |
| U7G U8A G9C U10G U11A C12U | 1.02 |
| G9U U10G U11G C12U | 1.33 |
| U10C U11G C12A C13U | 1.3 |
| U7G U8A G9C U10C C12A C13U | 1.01 |
| U7G U10A C12U C13G | 1.22 |
| G9U U10C C12A C13U | 1.38 |
| G9U U10A C13U | 1.54 |
| U7A U8C G9U U10G U11G C12A | 1.18 |
| U8A G9U U10C C12U C13U | 1.18 |
| U7A U8A U10C U11G C12A | 1.09 |
| U7C U8G G9U U11A C12U C13A | 1.43 |
| U7G U8G G9A U11A C12U C13A | 1.15 |
| U7C U8C U10G U11C C12A C13U | 1.15 |
| U7C U8A G9A C12U C13G | 1.19 |
| G9A U10A C12G | 1.61 |
| U7G U8C U11C C12G | 1.38 |
| U7C U8G G9C U10C U11A C12G C13G | 1.17 |
| U7A U8A G9C U10C U11A C12G C13A | 1.05 |
| U7A U8G G9A U10G U11C C12G C13A | 1.4 |
| U7A U8C G9C U11C C12G | 1.18 |
| U8C U10C C12A C13G | 1.17 |

| Variant | aptazyme ON/OFF ratio |
| --- | --- |
| U8A U10A U11C C12A C13U | 1.19 |
| U7A U8A G9A U10G U11G C12G C13A | 1.5 |
| U7A U8G G9A U10C U11A C12U | 1.2 |
| U7G G9C U10G U11C C12A | 1.69 |
| U7A U8C U10A U11A C12A C13U | 1.17 |
| U7G U8G U11G C13U | 1.28 |
| U10G U11C C13U | 1.04 |
| G9C U11A C12G C13G | 1.24 |
| U7G U8C G9C U10G C12G C13U | 1.1 |
| G9A U10C U11C C12U C13G | 1.04 |
| U7C U8C G9C U10C U11C C12G | 1.13 |
| U7C U8A U10A C12A C13G | 1.21 |
| U8C G9A U10G C12U C13U | 1.54 |
| U7C U8A U10A U11G C12U C13A | 1.18 |
| U8C G9C U11C C13U | 1.04 |
| U7A U8G U11C C13U | 1.11 |
| U7A U8G G9U U10A U11A C12A C13U | 1.42 |
| U8A G9A U11C C13G | 1.08 |
| U7G G9A U10G U11G C13A | 1.05 |
| U7A G9U U10C C12U C13U | 1.2 |
| U7A U10C C12U C13A | 1.16 |
| U7C U8C G9C U10A U11C C12G C13G | 1.15 |
| U8G G9C | 1.09 |
